For assay [1], the target named is T1, human 5T4-His protein (human, UniProt Q13641 32-355).
T1 construct: also called recombinant 5T4 protein (human 5T4-his tag); human 5T4 protein; not shown: His tag
T1 sequence (looked up): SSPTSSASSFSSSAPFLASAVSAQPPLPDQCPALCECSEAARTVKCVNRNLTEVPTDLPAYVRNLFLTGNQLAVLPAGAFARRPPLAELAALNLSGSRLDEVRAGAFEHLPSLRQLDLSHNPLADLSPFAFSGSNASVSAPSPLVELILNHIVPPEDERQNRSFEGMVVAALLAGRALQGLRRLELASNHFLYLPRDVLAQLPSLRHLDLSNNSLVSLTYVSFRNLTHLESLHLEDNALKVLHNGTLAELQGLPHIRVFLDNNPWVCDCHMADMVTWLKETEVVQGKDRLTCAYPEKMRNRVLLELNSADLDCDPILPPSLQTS
Put plainly: ELISA, coated antigen.

For a further assay, the target named is T2, cynomolgus 5T4 protein (cynomolgus monkey, UniProt Q4R8Y9 35-355, limits assumed).
T2 construct: Coated protein in ELISA; the screening step names a cyno 5T4-His protein; also called cyno 5T4; recombinant cyno 5T4-His protein
T2 sequence (looked up): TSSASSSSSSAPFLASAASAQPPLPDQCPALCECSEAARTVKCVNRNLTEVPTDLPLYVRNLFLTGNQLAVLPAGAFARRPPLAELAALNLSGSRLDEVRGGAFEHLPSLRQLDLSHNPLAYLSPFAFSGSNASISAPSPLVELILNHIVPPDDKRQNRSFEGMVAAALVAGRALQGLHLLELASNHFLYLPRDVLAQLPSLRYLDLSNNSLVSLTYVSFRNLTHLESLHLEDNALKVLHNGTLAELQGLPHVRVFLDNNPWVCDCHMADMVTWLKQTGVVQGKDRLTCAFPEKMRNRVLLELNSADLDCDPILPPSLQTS
Put plainly: ELISA, coated antigen.

The target in assay [2] is T1, human 5T4-His protein. Put plainly: SPR Biacore, Protein A capture. Summed up:
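Antibodies captured on a Protein A chip on Biacore T200; serial dilutions of His-tagged human 5T4 injected 2-3 min at 30 μl/min, dissociation 360-1000 s.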
Background: In SPR one partner is held on a chip, and binding of the other changes the refractive index at the surface.

The target in assay [3] is T1, human 5T4-His protein. Description: competitive ELISA, coated human 5T4, vs 267B5-biotin. On the technique in general: In an ELISA, binding on a coated surface is turned into a signal by an enzyme label.
Assay [4] addresses T1, human 5T4-His protein. The assay is described as above. This is another data set of the same source.
The target of assay [5] is T1, human 5T4-His protein. Description: ELISA, coated 5T4-His. On the procedure:
To evaluate the binding activity of 159D5 humanized antibodies to human 5T4, the 159D5 chimeric antibody along with 159D5 humanized mAbs were subjected to ELISA test.
Briefly, microtiter plates were coated with human 5T4-His protein at 1 μg/ml in PBS, 100 μl/well at 4° C. overnight, then blocked with 150 μl/well of 10% BSA. Serial dilutions of antibodies were added to each well and incubated for 1 hour at 37° C. The plates were washed with PBS/Tween and then incubated with Goat Anti-Human IgG-HRP for 30 mins at 37° C. After washing, the plates were developed with TMB substrate and analyzed by spectrophotometer at OD 450 nm. As shown in FIG. 14 and Table 12, most of the humanized antibodies bound to human 5T4 with high activity.

Assay [6] deals with T1, human 5T4-His protein. Description: SPR Biacore, Protein A capture, 50 nM 5T4-His. As to the method:
The binding of the 159D5 humanized antibodies to recombinant 5T4 protein (human 5T4-his tag) was tested with Biacore using a capture method. The mAbs were captured using Protein A chip. 50 nM of human 5T4-his tag protein was injected over captured antibody for 3 mins at a flow rate of 30 μl/min. The antigen was allowed to dissociate for 600 s. All the experiments were carried out on a Biacore T200. Data analysis was carried out using the Biacore T200 evaluation software.

Assay [7] deals with T1, human 5T4-His protein. Put plainly: competitive ELISA, coated human 5T4, vs 159D5-biotin.
Assay [8] addresses T1, human 5T4-His protein. The assay is described as above. This is another data set of the same source.
Assay [9] has as its target T1, human 5T4-His protein. The assay is described as above. The source holds these as a separate data set.

Broadly, the EC50 is the concentration at which the effect is half-maximal. A low value points to higher potency in that assay. As a reminder, the Kd is the constant that tells how readily two partners part at equilibrium. High values mean weaker binding, low ones tighter binding. The term koff denotes a measure of how fast the partners let go of each other. A high value points to fast dissociation. What is called kon is the second-order rate constant of association. Read a high kon as fast association.

Values joined by “and” are separate entries in the source; they are usually repeats but may differ in a detail not shown here. Equal values may be shown once.

B1: 267B5 chimeric antibody (antibody, V domains shown)
VH: DVQFQESGPGLVKPSQSLSLTCSVTGYSITSSYYWNWIRQFPGDKLEWMGYISYDGSNNYNPSLKNRISITRDTSKKQFFLKLNSVTTEDTATYYCARSWDGGYAMDNWGQGTSVTVSS
VL: SIVMTQTPKFLLVSAGDRVTITCKASQSVSNDVAWYQQKPGQSPKLLIYFASNRYTGVPDRFTGSGYGTVFTFTISTVQADDLAVYFCQQDYTSPWTFGGGTRLEIK
notes: chimeric mAb
For the molecule B1, the midpoint of the response with human 5T4-His protein [1], the EC50, lay at 310 pM. The molecule also yielded an EC50 with cynomolgus 5T4 protein of 170 pM. In the assay with human 5T4-His protein [2], this molecule displayed a Kd of 1620 pM, a koff of 0.000255 s⁻¹ and an on-rate (kon) of 158000 M⁻¹ s⁻¹. Further, the “IC50 (read off the curve)” value in the assay with human 5T4-His protein [3] is approximately 10000 pM. Also, the “IC50 (read off the curve)” value with human 5T4-His protein [4] was approximately 5000 pM.

B2: 159D5 chimeric antibody (antibody, V domains shown)
VH: DVQLVESGGGLVQPGGSRKLSCTASGFTFSNFGMHWVRQAPETGLEWVAYISSGSSTFYYADSVKGRFTISRDNPKNTLFLQMTSLRSEDTAMYFCARSPAYYRYGLDYWGQGTTLTVSS
VL: DIVLTQSPASLAVSLGQRATISCRASQSVSSSTFSYMHWYQQKPGQPPKLLIKSSSNLESGVPARFSGSGSGTDFTLNIHPVEEEDTATYYCQHSWEIPYTFGGGTKLEIK
notes: chimeric mAb
Turning to B2, the EC50 with human 5T4-His protein [1] is 240 pM and 200 pM and 390 pM; in the assay with cynomolgus 5T4 protein, 180 pM and 190 pM and 200 pM and 110 pM; with human 5T4-His protein [5], 130 pM. In addition, the Kd turned out to be 206 pM with human 5T4-His protein [2] and 618 pM in the assay with human 5T4-His protein [6]. Further, the koff in the assay with human 5T4-His protein [2] is 0.00024 s⁻¹; with human 5T4-His protein [6] it was 0.000204 s⁻¹. For the same molecule, the results for the kon with human 5T4-His protein [2] and in the assay with human 5T4-His protein [6] were 1.16e+06 M⁻¹ s⁻¹ and 330000 M⁻¹ s⁻¹, respectively. For the same molecule, the “IC50 (read off the curve)” value with human 5T4-His protein [7] was approximately 5000 pM; in the assay with human 5T4-His protein [8], approximately 5000 pM; with human 5T4-His protein [9], approximately 4000 pM.
